Laboratory results from patent US20250228957A1 (BIOHAVEN THERAPEUTICS, published 2025).

Tests used:
[1] = target: Deglycosylated IgA (dg-IgA) (human, UniProt P01876-1 1-353, Human serum IgA was treated with PNGase, neuraminidase, and galactosidase; conjugated to Alexa Fluor 594 in the cell uptake assays); assay: cell-based or functional assay
Total IgA = assay: cell-based or functional assay

Sequence of Deglycosylated IgA (dg-IgA) (P01876 other isoform, or with tags, fused parts or gaps): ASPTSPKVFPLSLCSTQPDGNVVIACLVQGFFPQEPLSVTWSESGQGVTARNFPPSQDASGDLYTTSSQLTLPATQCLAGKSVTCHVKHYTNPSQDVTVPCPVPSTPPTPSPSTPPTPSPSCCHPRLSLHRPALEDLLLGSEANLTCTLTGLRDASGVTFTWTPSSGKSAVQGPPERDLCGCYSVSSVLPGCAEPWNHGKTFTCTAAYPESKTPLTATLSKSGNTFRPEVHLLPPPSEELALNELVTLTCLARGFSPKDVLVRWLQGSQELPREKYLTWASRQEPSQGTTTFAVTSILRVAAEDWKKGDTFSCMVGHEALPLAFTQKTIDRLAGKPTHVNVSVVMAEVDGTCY

B1: ABT030 (chimeric LALA PA mutant Km55 antibody) (antibody, human IgG1, kappa, L234A L235A, V domains shown)
VH: ELQLQESGPGLVKPSQSLSLTCSVTGYSIRSNYWGWIRKFPGNKMEWMGYITYSGGTYYNPSLKSRISITRDTSKNQFFLQLTSVTTEDTATYYCTRWGDWYFDFWGPGTKVTVSP
VL: DVVLTQTPPPLSVAIGQSVSISCKSSQSLVHTDGKTYLHWLLQSPGQSPKLLIYQVSNLGSGVPDRFSGTGSQKDFTLKISRVEAEDLGVYYCVQATHFPLTFGIGTKLELQR
EC50, Assay #1, uptake of A594-labelled cargo by HEK293 (+ASGPR) cells [1]: 0.353 nM
EC50, Assay #3, uptake of A594-labelled cargo by HEK293 (+ASGPR) cells [1]: 3.53 nM
S/N, Assay #1, uptake of A594-labelled cargo by HEK293 (+ASGPR) cells [1]: 4.3 signal-to-noise ratio
S/N, Assay #2, uptake of A594-labelled cargo by HEK293 (+ASGPR) cells [1]: 3.7 signal-to-noise ratio
S/N, Assay #3, uptake of A594-labelled cargo by HEK293 (+ASGPR) cells [1]: 7.1 signal-to-noise ratio
EC50, Assay #1, uptake of A594-labelled cargo by HEK293 (+ASGPR) cells (Total IgA): 7.15 nM
